# Publication PMC9700037, “Inflammasome sensor NLRP1 disease variant M1184V promotes autoproteolysis and DPP9 complex formation by stabilizing the FIIND domain” (The Journal of Biological Chemistry, 2022)
# How the values were obtained:
# [1] = biological target: the molecule itself; assay: SEC; purified FIIND proteins after removal of GST by TEV, Superose 6 increase (10/300) GL, 0.5 ml/min; fractions checked by SDS-PAGE
# [2] = biological target: T1, Intracellularly biotinylated Avi-His6-tev-DPP9 (UniProt Q86TI2 1-863, biotin (on the Avi tag)); assay: SPR; biotinylated Avi-His6-tev-DPP9 immobilised on a Series S SA chip (Biacore 8K); monomeric fraction of FIIND proteins (or GST) injected, single-cycle kinetics, 78.125-5000 nM (S1213A from 39.06 nM), 10 mM Hepes pH 7.5, 150 mM NaCl, 0.5 mM TCEP, 0.05% Tween-20; settings: both partners purified
# T1 construct: dipeptidyl peptidase 9 (DPP9); also called biotin-DPP9; immobilized DPP9; source: Sf9 insect cells, intracellularly biotinylated, purified; not shown: Avi, N-terminal, kept; His6, N-terminal, kept
# [3] = biological target: T1, Intracellularly biotinylated …; assay: SPR; as a3, with 100 μM Val-boroPro (VbP) present in all dilutions of the FIIND domain; settings: both partners purified
# [4] = biological target: T2, C-terminal cleavage fragment (UPA) of NLRP1-FIIND (human, UniProt Q9C000 1213-1376); assay: SEC; purified FIIND proteins after removal of GST by TEV, Superose 6 increase (10/300) GL, 0.5 ml/min; fractions checked by SDS-PAGE; settings: both partners purified
# T2 construct: NLRP1, human, isoform 1; from the autolytic cleavage site (S1213) to the end of the FIIND construct (1376); source: Sf9 insect cells, purified; arises by autoproteolysis of the FIIND construct
# T2 sequence (looked up): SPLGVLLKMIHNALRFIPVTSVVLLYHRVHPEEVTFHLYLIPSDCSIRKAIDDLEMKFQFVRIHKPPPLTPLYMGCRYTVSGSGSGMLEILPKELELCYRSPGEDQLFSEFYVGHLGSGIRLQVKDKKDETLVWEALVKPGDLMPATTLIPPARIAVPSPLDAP
# T1 sequence (Q86TI2 whole entry): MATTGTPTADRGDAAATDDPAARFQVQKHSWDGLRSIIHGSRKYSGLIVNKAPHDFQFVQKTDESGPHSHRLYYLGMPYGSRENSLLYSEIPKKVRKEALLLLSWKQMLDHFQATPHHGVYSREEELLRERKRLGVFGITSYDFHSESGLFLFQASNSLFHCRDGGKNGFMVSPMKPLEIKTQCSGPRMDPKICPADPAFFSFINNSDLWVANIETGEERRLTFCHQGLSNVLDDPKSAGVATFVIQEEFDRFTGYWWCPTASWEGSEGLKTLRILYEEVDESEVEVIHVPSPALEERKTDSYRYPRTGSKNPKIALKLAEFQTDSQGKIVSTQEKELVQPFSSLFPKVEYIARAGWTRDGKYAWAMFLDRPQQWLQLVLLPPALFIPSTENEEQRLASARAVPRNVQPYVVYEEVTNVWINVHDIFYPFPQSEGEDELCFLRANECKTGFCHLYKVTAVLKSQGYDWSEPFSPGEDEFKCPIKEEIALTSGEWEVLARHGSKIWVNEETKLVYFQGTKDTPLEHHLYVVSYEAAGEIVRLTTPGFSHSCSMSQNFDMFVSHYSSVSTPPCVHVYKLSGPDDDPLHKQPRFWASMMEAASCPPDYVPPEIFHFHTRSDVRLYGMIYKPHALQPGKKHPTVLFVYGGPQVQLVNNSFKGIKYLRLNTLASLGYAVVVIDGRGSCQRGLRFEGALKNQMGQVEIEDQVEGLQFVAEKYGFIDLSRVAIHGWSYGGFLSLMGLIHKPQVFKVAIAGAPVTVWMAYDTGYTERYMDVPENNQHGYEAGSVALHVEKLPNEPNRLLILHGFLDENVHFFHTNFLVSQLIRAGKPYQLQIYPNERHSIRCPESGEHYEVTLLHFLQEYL
Binder,Kd [2] [µM],further results
"NLRP1-FIIND (wt) (domain or fragment, human, UniProt Q9C000 1064-1376, looked up, NLRP1 FIIND domain (ZU5-UPA), human, residues 1064-1376 of isoform 1; GST is still on the protein during the GST pull-down of the co-expression experiments and is cut off by TEV before SEC, SEC-MALS and SPR; also called wt FIIND protein; NLRP1 FIIND domain; source: also co-expressed with His6-DPP9 and SUMO-UPA in Sf9; not shown: GST, N-terminal, cleaved) SQGDLHTKPLGTDDDFWGPTGPVATEVVDKEKNLYRVHFPVAGSYRWPNTGLCFVMREAVTVEIEFCVWDQFLGEINPQHSWMVAGPLLDIKAEPGAVEAVHLPHFVALQGGHVDTSLFQMAHFKEEGMLLEKPARVELHHIVLENPSFSPLGVLLKMIHNALRFIPVTSVVLLYHRVHPEEVTFHLYLIPSDCSIRKAIDDLEMKFQFVRIHKPPPLTPLYMGCRYTVSGSGSGMLEILPKELELCYRSPGEDQLFSEFYVGHLGSGIRLQVKDKKDETLVWEALVKPGDLMPATTLIPPARIAVPSPLDAP",1.9,binding result [1]: binds
"NLRP1-FIIND (M1184V) (domain or fragment, human, UniProt Q9C000 1064-1376, looked up, NLRP1 FIIND domain (ZU5-UPA), human, residues 1064-1376 of isoform 1, natural variant M1184V; Mostly autocleaved between F1212 and S1213, the fragments stay together; GST is still on the protein during the GST pull-down of the co-expression experiments and is cut off by TEV before SEC, SEC-MALS and SPR; also called M1184V variant FIIND; source: also co-expressed with His6-DPP9 with or without …) SQGDLHTKPLGTDDDFWGPTGPVATEVVDKEKNLYRVHFPVAGSYRWPNTGLCFVMREAVTVEIEFCVWDQFLGEINPQHSWMVAGPLLDIKAEPGAVEAVHLPHFVALQGGHVDTSLFQVAHFKEEGMLLEKPARVELHHIVLENPSFSPLGVLLKMIHNALRFIPVTSVVLLYHRVHPEEVTFHLYLIPSDCSIRKAIDDLEMKFQFVRIHKPPPLTPLYMGCRYTVSGSGSGMLEILPKELELCYRSPGEDQLFSEFYVGHLGSGIRLQVKDKKDETLVWEALVKPGDLMPATTLIPPARIAVPSPLDAP",3.5,Kd [3]: 3.65 µM
"NLRP1-FIIND (S1213A) (domain or fragment, human, UniProt Q9C000 1064-1376, looked up, NLRP1 FIIND domain, human, residues 1064-1376 of isoform 1, S1213A (no autoproteolysis); Uncleaved single chain; also called autoproteolysis-deficient NLRP1-FIIND; not shown: GST, N-terminal, cleaved) SQGDLHTKPLGTDDDFWGPTGPVATEVVDKEKNLYRVHFPVAGSYRWPNTGLCFVMREAVTVEIEFCVWDQFLGEINPQHSWMVAGPLLDIKAEPGAVEAVHLPHFVALQGGHVDTSLFQMAHFKEEGMLLEKPARVELHHIVLENPSFAPLGVLLKMIHNALRFIPVTSVVLLYHRVHPEEVTFHLYLIPSDCSIRKAIDDLEMKFQFVRIHKPPPLTPLYMGCRYTVSGSGSGMLEILPKELELCYRSPGEDQLFSEFYVGHLGSGIRLQVKDKKDETLVWEALVKPGDLMPATTLIPPARIAVPSPLDAP",1.55,binding result [1]: binds
"NLRP1-FIIND (P1214R) (domain or fragment, human, UniProt Q9C000 1064-1376, looked up, NLRP1 FIIND domain, human, residues 1064-1376 of isoform 1, patient mutation P1214R; not shown: GST, N-terminal, cleaved) SQGDLHTKPLGTDDDFWGPTGPVATEVVDKEKNLYRVHFPVAGSYRWPNTGLCFVMREAVTVEIEFCVWDQFLGEINPQHSWMVAGPLLDIKAEPGAVEAVHLPHFVALQGGHVDTSLFQMAHFKEEGMLLEKPARVELHHIVLENPSFSRLGVLLKMIHNALRFIPVTSVVLLYHRVHPEEVTFHLYLIPSDCSIRKAIDDLEMKFQFVRIHKPPPLTPLYMGCRYTVSGSGSGMLEILPKELELCYRSPGEDQLFSEFYVGHLGSGIRLQVKDKKDETLVWEALVKPGDLMPATTLIPPARIAVPSPLDAP",3.43,–
"NLRP1-FIIND (M1184V S1213A) (domain or fragment, human, UniProt Q9C000 1064-1376, looked up, NLRP1 FIIND domain, human, residues 1064-1376 of isoform 1, M1184V and S1213A; Uncleaved single chain; GST kept during the GST pull-down of the co-expression, cut off by TEV afterwards; also called cleavage-deficient FIIND mutant (M1184V–S1213A); source: also co-expressed with His6-DPP9 in Sf9; not shown: GST, N-terminal, cleaved) SQGDLHTKPLGTDDDFWGPTGPVATEVVDKEKNLYRVHFPVAGSYRWPNTGLCFVMREAVTVEIEFCVWDQFLGEINPQHSWMVAGPLLDIKAEPGAVEAVHLPHFVALQGGHVDTSLFQVAHFKEEGMLLEKPARVELHHIVLENPSFAPLGVLLKMIHNALRFIPVTSVVLLYHRVHPEEVTFHLYLIPSDCSIRKAIDDLEMKFQFVRIHKPPPLTPLYMGCRYTVSGSGSGMLEILPKELELCYRSPGEDQLFSEFYVGHLGSGIRLQVKDKKDETLVWEALVKPGDLMPATTLIPPARIAVPSPLDAP",2.9,–
"NLRP1-FIIND (M1184V–P1214R) (domain or fragment, human, UniProt Q9C000 1064-1376, looked up, NLRP1 FIIND domain, human, residues 1064-1376 of isoform 1, M1184V and P1214R; they were combined here by mutagenesis; also called M1184V–P1214R double mutation; not shown: GST, N-terminal, cleaved) SQGDLHTKPLGTDDDFWGPTGPVATEVVDKEKNLYRVHFPVAGSYRWPNTGLCFVMREAVTVEIEFCVWDQFLGEINPQHSWMVAGPLLDIKAEPGAVEAVHLPHFVALQGGHVDTSLFQVAHFKEEGMLLEKPARVELHHIVLENPSFSRLGVLLKMIHNALRFIPVTSVVLLYHRVHPEEVTFHLYLIPSDCSIRKAIDDLEMKFQFVRIHKPPPLTPLYMGCRYTVSGSGSGMLEILPKELELCYRSPGEDQLFSEFYVGHLGSGIRLQVKDKKDETLVWEALVKPGDLMPATTLIPPARIAVPSPLDAP",4.5,–
"N-terminal cleavage fragment (ZU5) of NLRP1-FIIND wt (domain or fragment, human, UniProt Q9C000 1064-1212, looked up, NLRP1, human, isoform 1; from the start of the FIIND construct (1064) to the autolytic cleavage site (peptide bond F1212-S1213); source: Sf9 insect cells, purified; arises by autoproteolysis of the FIIND construct; not shown: GST, N-terminal, cleaved) SQGDLHTKPLGTDDDFWGPTGPVATEVVDKEKNLYRVHFPVAGSYRWPNTGLCFVMREAVTVEIEFCVWDQFLGEINPQHSWMVAGPLLDIKAEPGAVEAVHLPHFVALQGGHVDTSLFQMAHFKEEGMLLEKPARVELHHIVLENPSF",–,binding result [4]: binds
"N-terminal cleavage fragment (ZU5) of NLRP1-FIIND M1184V (domain or fragment, human, UniProt Q9C000 1064-1212, looked up, NLRP1, human, isoform 1, natural variant M1184V; from the start of the FIIND construct (1064) to the autolytic cleavage site (peptide bond F1212-S1213); source: Sf9 insect cells, purified; arises by autoproteolysis of the FIIND construct; not shown: GST, N-terminal, cleaved) SQGDLHTKPLGTDDDFWGPTGPVATEVVDKEKNLYRVHFPVAGSYRWPNTGLCFVMREAVTVEIEFCVWDQFLGEINPQHSWMVAGPLLDIKAEPGAVEAVHLPHFVALQGGHVDTSLFQVAHFKEEGMLLEKPARVELHHIVLENPSF",–,binding result [4]: binds
